Patent US20250043019A1 (Janssen / Centocor, published 2025)
Positions count from the first letter of the chain named. Names may count otherwise.

B1: C923B74 CD79bxCD20xCD3 trispecific antibody (other)
heavy: QVQLQQSGPGLVKPSQTLSLTCAISGDSVSSNSATWNWIRQSPSRGLEWLGRTYYRSKWYNDYTVSVKSRITINPDTSKNQFSLQLNSVTPEDTAVYYCTRVDIAFDYWGQGTLVTVSSASTKGPSVFPLAPSSKSTSGGTAALGCLVKDYFPEPVTVSWNSGALTSGVHTFPAVLQSSGLYSLSSVVTVPSSSLGTQTYICNVNHKPSNTKVDKKVEPKSCDKTHTCPPCPAPEAAGGPSVFLFPPKPKDTLMISRTPEVTCVVVSVSHEDPEVKFNWYVDGVEVHNAKTKPREEQYNSTYRVVSVLTVLHQDWLNGKEYKCKVSNKALPAPIEKTISKAKGQPREPQVYTLPPSREEMTKNQVSLSCAVKGFYPSDIAVEWESNGQPENNYKTTPPVLDSDGSFFLVSKLTVDKSRWQQGNVFSCSVMHEALHNRFTQKSLSLSPGK
light: QTVVTQPPSVSEAPRQRVTISCSGSSSNIGNHGVNWYQQLPGKAPKLLIYNDDLLPSGVSDRFSGSTSGTSGSLAISGLQSEDEADYYCAAWDDSLNGVVFGGGTKLTVLGQPKAAPSVTLFPPSSEELQANKATLVCLISDFYPGAVTVAWKADSSPVKAGVETTTPSKQSNNKYAASSYLSLTPEQWKSHRSYSCQVTHEGSTVEKTVAPTECS
chain: EIVLTQSPATLSASPGERVTLSCSASSSVSYMNWYQQKPGQAPRRWIYDSSKLASGVPARFSGSGSGRDYTLTISSLEPEDFAVYYCQQWSRNPPTFGGGTKVEIKGGSEGKSSGSGSESKSTGGSQVQLVQSGAEVKKPGSSVKVSCKASGYTFTRSTMHWVKQAPGQGLEWIGYINPSSAYTNYNQKFQGRVTLTADKSTSTAYMELSSLRSEDTAVYYCASPQVHYDYAGFPYWGQGTLVTVSSEPKSSDKTHTCPPCPAPEAAGGPSVFLFPPKPKDTLMISRTPEVTCVVVSVSHEDPEVKFNWYVDGVEVHNAKTKPREEQYNSTYRVVSVLTVLHQDWLNGKEYKCKVSNKALPAPIEKTISKAKGQPREPQVYTLPPSREEMTKNQVSLWCLVKGFYPSDIAVEWESNGQPENNYKTTPPVLDSDGSFFLYSKLTVDKSRWQQGNVFSCSVMHEALHNHYTQKSLSLSPGKGGSEGKSSGSGSESKSTGGSAIQLTQSPSSLSASVGDRVTITCRASSSVSYIHWFQQKPGKAPKPLIYATSNLASGVPSRFSGSGSGTDFTLTISSLQPEDFATYYCQQWTSNPPTFGQGTKLEIKGGSEGKSSGSGSESKSTGGSQVQLVQSGAEVKKPGSSVKVSCKASGYTFTSYNMHWVRQAPGQGLEWMGAIYPGNGDTSYAQKFQGRVTITADKSTSTAYMELSSLRSEDTAVYYCARSTYYGGDWYFNVWGQGTLVTVSS
notes: Trispecific IgG1; also called CD9B330-N31S / CD3B2030-N106A-scFv-LH-C20B22
B2: C20B648 anti-CD20 binder (antibody, V domains shown)
VH: QVQLVQSGAEVKKPGSSVKVSCKASGYTFSSYNMHWVRQAPGQGLEWMGAIYPGAGDTSYAQKFQGRVTITADESTSTAYMELSSLRSEDTAVYYCARSNYYGSSGWYFDVWGKGTTVTVSS
VL: EIVLTQSPATLSLSPGERATLSCRASLSVSSMHWYQQKPGQAPRLLIYATSNLASGIPARFSGSGSGTDFTLTISSLEPEDFAVYYCQQWIFNPPTFGGGTKVEIK

Key:
[1] = target: T1, human CD79b and CD20 co-expressed on the surface of B-lymphoma cell lines or primary B cells (human, UniProt P11836 1-297); experiment: flow cytometry, OCI-LY10 cells (CD79b+ CD20+), 1 h 37 C
T1 construct: whole, on cells; not a defined complex; also called CD79b+/CD20+ cells; K562 CD79b&CD20
T1 sequence 1: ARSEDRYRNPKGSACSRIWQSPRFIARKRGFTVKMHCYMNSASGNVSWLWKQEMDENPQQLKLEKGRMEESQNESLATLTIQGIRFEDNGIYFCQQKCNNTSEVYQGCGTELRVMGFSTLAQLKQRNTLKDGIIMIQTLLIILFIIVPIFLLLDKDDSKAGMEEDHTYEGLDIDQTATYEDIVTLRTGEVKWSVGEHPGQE
T1 sequence 2: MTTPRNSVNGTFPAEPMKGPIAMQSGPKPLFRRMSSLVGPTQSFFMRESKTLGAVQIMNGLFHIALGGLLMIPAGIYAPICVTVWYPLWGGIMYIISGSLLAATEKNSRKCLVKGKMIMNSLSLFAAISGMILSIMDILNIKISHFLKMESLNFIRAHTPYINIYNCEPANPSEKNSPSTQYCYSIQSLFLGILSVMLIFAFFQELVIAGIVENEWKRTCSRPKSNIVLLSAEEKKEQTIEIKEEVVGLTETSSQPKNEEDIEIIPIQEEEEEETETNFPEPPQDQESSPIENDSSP
Procedure: (§1) All cells were washed with BD stain buffer (BD Biosciences; Cat #554657), centrifuged at 1200 RPM for 3 minutes, with supernatant discarded. Cells were then stained for 20 minutes at 4° C. with BD stain buffer containing AlexaFluor 647 labeled anti-human IgG secondary antibody (Jackson Immuno; Cat #109-606-098) at a 1:200 dilution along with Aqua Fixable Live/Dead stain (Invitrogen; Cat #L34957) at a 1:400 dilution. All cells were washed with BD stain buffer (BD Biosciences; Cat #554657), centrifuged at 1200 RPM for 3 mins, with supernatant discarded. Cells were analyzed using Intellicyt (Sartorius) flow cytometer and mean fluorescent intensity (MFI) was generated using Forcyt software (Sartorius). MFI was graphed and EC50 values generated using GraphPad PRISM v.8. Dose response curves were generated by transforming the x axis values using the formula […]. Data was then graphed using non-linear regression curve fit analysis “log(agonist) vs. response-variable slope (four parameter)”.

[2] = target: T2, recombinant extracellular domain of human CD79b, long isoform (human, UniProt P40259 29-159); experiment: SPR Biacore 8k, antibody captured by anti-Fc, 25 C
T2 construct: also called hu CD79b long
T2 sequence: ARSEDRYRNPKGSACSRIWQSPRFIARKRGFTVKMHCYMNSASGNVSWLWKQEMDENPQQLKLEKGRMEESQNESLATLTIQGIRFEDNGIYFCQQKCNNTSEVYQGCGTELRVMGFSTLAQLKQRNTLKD
Procedure: (§2) General Protocol for SPR Affinity Assessment: Affinity assessment of the bispecific trispecific constructs against human CD79b were measure using recombinantly expressed extracellular domain of CD79b short and long isoforms (CD9W7.001 and CD9W8.001, respectively) by Surface Plasmon Resonance (SPR) using a Biacore 8k SPR system (Biacore) at 25° C. in HBSP+ buffer. Cross-reactivity of the same antibody panel was also assessed against cyno and mouse antigens (CD9W1.001 and CD9W105.001, respectively). Briefly, a C1 sensor chip was immobilized with anti-human Fc (target immobilization levels of >400 RU) using vendor recommended amino coupling protocol. […] The association and dissociation phases were measured for 2 or 3 minutes and 30 minutes, respectively.
(§3) The raw binding sensorgrams were processed using Biacore Insight software (Biacore) by double-referencing and the processed sensorgrams were analyzed for cross-reactivity and fitted to a 1:1 Langmuir model to obtain on-rates, off-rates and affinities.

[3] = target: T3, recombinant extracellular domain of human CD79b, short isoform (human, UniProt P40259 29-159); experiment: SPR Biacore 8k, antibody captured by anti-Fc, 25 C
T3 chain: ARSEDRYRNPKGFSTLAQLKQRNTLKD
Procedure: as §2, §3

[4] = target: T4, cynomolgus monkey CD79b antigen (cynomolgus monkey); experiment: SPR Biacore 8k, cyno CD79b injected up to 3000 nM
T4 construct: also called cyno CD79b; CD9W1.001
Method in brief: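 Antibodies captured on anti-human Fc C1 chip, CD79b extracellular domain injected in HBSP+ at 25 °C; association 2 or 3 min, dissociation 30 min. Double-referenced sensorgrams fitted to a 1:1 Langmuir model for on-rate, off-rate and affinity.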

[5] = target: T1, human CD79b and CD20 co-expressed on …; experiment: cell-based or functional assay
[6] = target: T1, human CD79b and CD20 co-expressed on …; experiment: cell-based or functional assay; remark: listed apart in the source
[7] = target: T1, human CD79b and CD20 co-expressed on …; experiment: cell-based or functional assay; remark: listed apart in the source
[8] = target: T1, human CD79b and CD20 co-expressed on …; experiment: flow cytometry, Carnaval cells (CD79b+ CD20+), 1 h 37 C
Procedure: as §1

[9] = target: T1, human CD79b and CD20 co-expressed on …; experiment: cell-based or functional assay; remark: listed apart in the source
[10] = target: T1, human CD79b and CD20 co-expressed on …; experiment: flow cytometry, HBL-1 cells (CD79b+ CD20+), 1 h 37 C
Procedure: as §1

[11] = target: T1, human CD79b and CD20 co-expressed on …; experiment: cell-based or functional assay; remark: listed apart in the source
[12] = target: T1, human CD79b and CD20 co-expressed on …; experiment: cell-based or functional assay; remark: listed apart in the source
[13] = target: T5, human CD20 on the cell surface (human, UniProt P11836 1-297); experiment: flow cytometry, human B cells
T5 construct: whole, on cells; On B-lymphoma lines, primary B cells, K562 CD20 or HEK293 transfectants; also called MS4A1; B-lymphocyte antigen CD20
T5 sequence (looked up): T1 sequence 2

[14] = target: T6, cynomolgus monkey CD20 on B cells (cynomolgus monkey, UniProt M4ZHZ6 1-297); experiment: flow cytometry, cynomolgus B cells
T6 construct: whole, on cells
T6 sequence: T1 sequence 2 with S25P, F31L, T51A, A157V, K217R, N226S, I227V, T239V

Row | Binder | EC50 [1] [nM] | Kd [2] [nM] | Kd [3] [nM] | Kd [4] [nM] | IC50, CARNAVAL killing (Incucyte) [5] [nM] | IC50, T-cell killing of HBL-1 (Incucyte) [6] [nM] | IC50, T-cell killing of OCI-Ly10 (Incucyte) [7] [nM] | EC50 [8] [nM] | Cmax (maximum cytotoxicity), donor 1 [9] [%] | Cmax (maximum cytotoxicity), donor 2 [9] [%] | Cmax (maximum cytotoxicity), donor 3 [9] [%] | EC50, autologous B-cell depletion, donor 1 [9] [nM] | EC50, autologous B-cell depletion, donor 2 [9] [nM] | EC50 [10] [nM] | IC50, CARNAVAL killing, 72 h (FACS) [11] [nM] | IC50, HBL-1 killing, 72 h (FACS) [11] [nM] | IC50, OCI-LY10 killing, 72 h (FACS) [11] [nM] | IC50, Daudi killing (Incucyte) [12] [nM] | binding result [13] | binding result [14]
1 | B1 | 66 | 0.023 | 0.39 | > 3000 | 0.741 | 0.346 | 25.6 | 23 | 34 | 66 | 40 | 78 | 23 | 52 | 0.35 | 2.42 | 24.2 | 0.1 | – | –
2 | B2 | – | – | – | – | – | – | – | – | – | – | – | – | – | – | – | – | – | – | binds | binds
